These are literature values, as cited in PMC7669891.

Data set [1] concerns the target p53 CTD (Homo sapiens) (UniProt P04637). Kind of data set: FP.
The target is the same in data set [2]. Kind of data set: FP. This is another data set of the same source.
For data set [3] the target is unchanged. The experiment in a line: FP. The source holds these as a separate data set.
The target is the same in data set [4]. The experiment in a line: FP. This is another data set of the same source.
For data set [5] the target is unchanged. The experiment in a line: FP. This is another data set of the same source.
The target is the same in data set [6]. The experiment in a line: FP. The source holds these as a separate data set.
For data set [7] the target is unchanged. The experiment in a line: FP. The source holds these as a separate data set.
Data set [8] shares this target. Kind of data set: FP. The source holds these as a separate data set.
Data set [9] shares this target. The experiment in a line: FP. This is another data set of the same source.
For data set [10] the target is unchanged. The experiment in a line: FP. The source holds these as a separate data set.
The target is the same in data set [11]. Kind of data set: FP. The source holds these as a separate data set.
Data set [12] shares this target. Kind of data set: FP. The source holds these as a separate data set.
Data set [13] has the same target. Kind of data set: ITC.
Data set [14] shares this target. The experiment in a line: FP. The source holds these as a separate data set.
For data set [15] the target is unchanged. Kind of data set: FP. This is another data set of the same source.
For data set [16] the target is unchanged. The experiment in a line: FP. This is another data set of the same source.
For data set [17] the target is unchanged. Kind of data set: FP. This is another data set of the same source.
The target is the same in data set [18]. The experiment in a line: FP. The source holds these as a separate data set.
Data set [19] has the same target. The experiment in a line: FP. This is another data set of the same source.
For data set [20] the target is unchanged. The experiment in a line: FP. The source holds these as a separate data set.
Data set [21] has the same target. The experiment in a line: FP. The source holds these as a separate data set.
Data set [22] has the same target. Kind of data set: FP. The source holds these as a separate data set.
The target of the next data set is 14-3-3γ (Homo sapiens) (UniProt P61981). The experiment in a line: FP.
The target of data set [23] is 14-3-3σ (Homo sapiens) (UniProt P31947). The experiment in a line: FP.
The next data set concerns the target 14-3-3ε (Homo sapiens) (UniProt P62258). Kind of data set: FP.
The next data set has as its target 14-3-3τ (Homo sapiens) (UniProt P27348). Kind of data set: FP.
For data set [24], the target named is 14-3-3σ (Homo sapiens) (UniProt P31947). Kind of data set: ITC.

p53 CTD (Homo sapiens), sequence (P04637 363-393): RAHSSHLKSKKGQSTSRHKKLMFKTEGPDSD
14-3-3ε (Homo sapiens), sequence (P62258 whole entry): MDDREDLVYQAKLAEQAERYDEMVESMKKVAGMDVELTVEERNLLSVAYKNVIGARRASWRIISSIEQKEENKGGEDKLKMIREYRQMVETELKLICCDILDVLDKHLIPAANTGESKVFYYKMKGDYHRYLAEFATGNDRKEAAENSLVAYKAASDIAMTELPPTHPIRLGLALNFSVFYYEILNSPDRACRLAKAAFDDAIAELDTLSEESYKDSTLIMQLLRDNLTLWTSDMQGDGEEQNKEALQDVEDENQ
14-3-3ε, sequence (P62258 whole entry): as above
14-3-3γ, sequence (P61981 2-247): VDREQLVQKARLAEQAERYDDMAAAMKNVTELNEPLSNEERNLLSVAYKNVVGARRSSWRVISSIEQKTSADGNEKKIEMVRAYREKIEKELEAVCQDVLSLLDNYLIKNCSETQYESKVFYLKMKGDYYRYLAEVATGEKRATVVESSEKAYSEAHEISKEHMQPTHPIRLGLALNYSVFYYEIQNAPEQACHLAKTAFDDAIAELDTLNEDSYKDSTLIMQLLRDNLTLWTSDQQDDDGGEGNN
14-3-3γ (Homo sapiens), sequence (P61981 2-247): as above
p53 CTD pS366/pS378 peptide, sequence (P04637 361-393): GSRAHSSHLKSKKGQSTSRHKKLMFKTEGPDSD
p53 CTD pS366/pT387 peptide, sequence (P04637 361-393): as above
p53 CTD pS378/pT387 peptide, sequence (P04637 361-393): as above
p53 CTD pS378 peptide, sequence (P04637 361-393): as above
p53 CTD pT387 peptide, sequence (P04637 361-393): as above
p53 CTD pS366 peptide, sequence (P04637 361-393): as above
14-3-3σ, sequence (P31947 whole entry): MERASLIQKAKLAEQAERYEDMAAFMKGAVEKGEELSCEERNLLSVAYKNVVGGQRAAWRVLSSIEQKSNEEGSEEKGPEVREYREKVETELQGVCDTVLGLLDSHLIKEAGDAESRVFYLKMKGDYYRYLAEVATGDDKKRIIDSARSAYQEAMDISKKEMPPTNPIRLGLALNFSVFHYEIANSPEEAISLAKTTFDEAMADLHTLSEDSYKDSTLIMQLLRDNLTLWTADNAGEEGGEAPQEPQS
14-3-3σ (Homo sapiens), sequence (P31947 whole entry): as above
14-3-3τ, sequence (P27348 whole entry): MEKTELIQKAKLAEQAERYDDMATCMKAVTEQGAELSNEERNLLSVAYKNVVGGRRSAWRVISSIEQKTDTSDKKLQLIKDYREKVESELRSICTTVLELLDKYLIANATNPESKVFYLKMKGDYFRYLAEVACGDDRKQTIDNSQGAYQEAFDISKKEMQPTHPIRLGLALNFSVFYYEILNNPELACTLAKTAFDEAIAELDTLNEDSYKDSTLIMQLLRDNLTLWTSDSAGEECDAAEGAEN
14-3-3τ (Homo sapiens), sequence (P27348 whole entry): as above

Take 14-3-3γ (from UniProt P61981): the Kd with p53 CTD (Homo sapiens) [1] is 14 µM; with p53 CTD (Homo sapiens) [2] it was 17 µM; with p53 CTD (Homo sapiens) [3], 0.48 µM; with p53 CTD (Homo sapiens) [4], 20 µM; with p53 CTD (Homo sapiens) [5], 0.45 µM; in the data set with p53 CTD (Homo sapiens) [6], 0.14 µM.

On to 14-3-3ε (from UniProt P62258), for which the dissociation constant Kd with p53 CTD (Homo sapiens) [7] was 0.8 µM; with p53 CTD (Homo sapiens) [8], 11 µM; with p53 CTD (Homo sapiens) [9] it was 18 µM; in the data set with p53 CTD (Homo sapiens) [10], 0.18 µM; in the data set with p53 CTD (Homo sapiens) [5] it was 16 µM; in the data set with p53 CTD (Homo sapiens) [11] it was 0.51 µM.

As to 14-3-3σ (from UniProt P31947), the Kd with p53 CTD (Homo sapiens) [12] is 24 µM; with p53 CTD (Homo sapiens) [13], 16.3 µM; with p53 CTD (Homo sapiens) [14], 2.2 µM; with p53 CTD (Homo sapiens) [5] it was 23 µM; in the data set with p53 CTD (Homo sapiens) [15] it was 22 µM; in the data set with p53 CTD (Homo sapiens) [16] it was 7.3 µM. The Kd in the data set with p53 CTD (Homo sapiens) [17] was 3.5 µM.

On to 14-3-3τ (from UniProt P27348), for which the Kd with p53 CTD (Homo sapiens) [18] is 28 µM; with p53 CTD (Homo sapiens) [19] it was 3.3 µM; with p53 CTD (Homo sapiens) [5] it was 6.2 µM; with p53 CTD (Homo sapiens) [20] it was 2.1 µM; in the data set with p53 CTD (Homo sapiens) [21], 27 µM; with p53 CTD (Homo sapiens) [22], 24 µM.

As to “p53 CTD pS366 peptide (from UniProt P04637)”, the Kd is 17 µM with 14-3-3γ (Homo sapiens), 24 µM in the data set with 14-3-3σ (Homo sapiens) [23], 16 µM with 14-3-3ε (Homo sapiens) and 28 µM in the data set with 14-3-3τ (Homo sapiens).

“p53 CTD pS366/pS378 peptide (from UniProt P04637)”: the Kd with 14-3-3γ (Homo sapiens) was 0.48 µM; with 14-3-3σ (Homo sapiens) [23] it was 2.2 µM; with 14-3-3ε (Homo sapiens), 0.51 µM; with 14-3-3τ (Homo sapiens), 2.1 µM.

Regarding “p53 CTD pS366/pT387 peptide (from UniProt P04637)”, the Kd with 14-3-3γ (Homo sapiens) was 0.14 µM; with 14-3-3σ (Homo sapiens) [23] it was 3.5 µM; with 14-3-3ε (Homo sapiens) it was 0.18 µM; in the data set with 14-3-3τ (Homo sapiens) it was 6.2 µM.

Take “p53 CTD pS378 peptide (from UniProt P04637)”: the Kd in the data set with 14-3-3γ (Homo sapiens) is 20 µM; with 14-3-3σ (Homo sapiens) [23], 22 µM; with 14-3-3ε (Homo sapiens), 18 µM; with 14-3-3τ (Homo sapiens), 27 µM.

With “p53 CTD pS378/pT387 peptide (from UniProt P04637)”, the dissociation constant (Kd) with 14-3-3γ (Homo sapiens) is 0.45 µM; in the data set with 14-3-3σ (Homo sapiens) [23] it was 7.3 µM; with 14-3-3ε (Homo sapiens), 0.8 µM; in the data set with 14-3-3τ (Homo sapiens), 3.3 µM.

Regarding “p53 CTD pT387 peptide (from UniProt P04637)”, the Kd with 14-3-3γ (Homo sapiens) is 14 µM; with 14-3-3σ (Homo sapiens) [23] it was 23 µM; with 14-3-3ε (Homo sapiens) it was 11 µM; with 14-3-3τ (Homo sapiens), 24 µM.

As to p53 pT387 peptide (from UniProt P04637), in the data set with 14-3-3σ (Homo sapiens) [24], the dissociation constant (Kd) is 16.3 µM.
